One may read the Kd as the constant that tells how readily two partners part at equilibrium. A lower Kd goes with tighter binding. As usually defined, the koff is the rate constant with which the complex falls apart. Usually kon stands for the rate constant with which the complex forms. A lower kon goes with slower complex formation.

Common to all, as to test: BLI; virus immobilised on APS probe (Gator Prime), PBS as running buffer; three concentrations (serial dilutions) of RDTfR in PBST (PBS, 0.05% Tween-20) applied; global fit, 1:1 binding model
A general note: BLI is a label-free optical method that tracks binding on a fibre tip over time.

The target of assay [1] is wild-type raccoon dog parvovirus strain RDPV/FLD/2010, capsid of VP2 (raccoon dog parvovirus, strain RDPV/FLD/2010).
The target in assay [2] is wild-type raccoon dog parvovirus strain RDPV/CL/2016, capsid of VP2 (raccoon dog parvovirus, strain RDPV/CL/2016).
The target of assay [3] is rRDPV-16 virus (rescued from the infectious cDNA clone pRDPV-16 of raccoon dog parvovirus strain RDPV/CL/2016), capsid of VP2 (raccoon dog parvovirus, strain RDPV/CL/2016).

“raccoon dog transferrin receptor ectodomain (recombinant RDTfR, from residue 121, C-terminal 6x His)” displayed a Kd in assay [1] of 103 nM. The Kd in assay [2] stood at 81.1 nM. In addition, in assay [3], the Kd turned out to be 56.1 nM, the koff was found to be 0.00306 s⁻¹ and the kon is 54500 M⁻¹ s⁻¹.
